Results reported in patent US11739333B2, “Regulation of gene expression by aptamer-modulated RNase p cleavage” (MeiraGTx UK II Limited, priority 2017, dated 2023).

Key:
[1] = test system: luciferase target gene expression in HEK 293 cells; test: Firefly luciferase assay of cultured cells, mascRNA inserted in 3' UTR; format: cell-based; details: no ligand
Experimental: Plasmid constructs: DNA fragments containing mouse mascRNA sequence and restriction sites at each end were synthesized (IDT), and digested and cloned into a plasmid backbone Con 8 that contains CMV enhancer/promoter and human beta-globin polyadenylation sequence. All constructs were verified by DNA sequencing (Genewiz).
Firefly luciferase assay of cultured cells: 3.5×10^4 HEK 293 cells were plated in 96-well flat bottom plate the day before transfection. Plasmid DNA (500 ng) was added to a tube or a 96-well U-bottom plate. Separately, TransIT-293 reagent (Minis; 1.4 μL) was added to 50 μL opti-mem I media (Life Technologies) and allowed to sit for 5 minutes at room temperature (“RT”). Then, 50 μL of this diluted transfection reagent was added to the DNA, mixed, and incubated at RT for 20 min. Finally, 7 μL of this solution was added to a well of cells in a 96-well plate. 4 hours after transfection, medium containing transfection solution was replaced with fresh medium. 24 hours after media change, plates were removed from the incubator, and equilibrated to RT for several minutes on a lab bench, then aspirated. […] Following a 5-min incubation at RT, luminescence was measured using a Tecan machine with 500 mSec read time. The luciferase activity was expressed as mean arbitrary light unit (ALU)±S.D.

[2] = test system: luciferase target gene expression in HEK 293 cells (aptamer-modulated RNase P cleavage of mRNA); test: Firefly luciferase assay of transfected cells treated with or without aptamer ligand; format: cell-based
Experimental: Firefly luciferase assay of cultured cells: 3.5×10^4 HEK 293 cells were plated in 96-well flat bottom plate the day before transfection. Plasmid DNA (500 ng) was added to a tube or a 96-well U-bottom plate. Separately, TransIT-293 reagent (Minis; 1.4 μL) was added to 50 μL opti-mem I media (Life Technologies) and allowed to sit for 5 minutes at room temperature (“RT”). Then, 50 μL of this diluted transfection reagent was added to the DNA, mixed, and incubated at RT for 20 min. Finally, 7 μL of this solution was added to a well of cells in a 96-well plate. 4 hours after transfection, medium containing transfection solution was replaced with fresh medium. 24 hours after media change, plates were removed from the incubator, and equilibrated to RT for several minutes on a lab bench, then aspirated. Glo-lysis buffer (Promega, 100 μL, RT) was added, and the plates allowed to remain at RT for at least 5 minutes. Then, the well contents were mixed by 50 μL trituration, and 20 μL of each sample was mixed with 20 μL of bright-glo reagent (Promega) that had been diluted to 10% in glo-lysis buffer. 96 wells were spaced on an opaque white 384-well plate. Following a 5-min incubation at RT, luminescence was measured using a Tecan machine with 500 mSec read time. The luciferase activity was expressed as mean arbitrary light unit (ALU)±S.D.
Plasmid constructs: oligonucleotide fragments containing mascRNA and guanine aptamer sequences (Mandal, M, et al., Cell 113, 577-586 (2003), incorporated herein by reference) were synthesized (IDT) and cloned into a luciferase (Luci) expression construct (Con8) in the 3′ UTR region using compatible restriction sites BamHI and XhoI. All the constructs were verified by DNA sequencing (Genewiz).
Firefly luciferase assay of cultured cells: cells were transfected as described in Example 1. Four hours after transfection, medium containing transfection solution was replaced by medium with either 0.5% DMSO as solvent control or 500 μM guanosine (Sigma) as aptamer ligand. Twenty-two to twenty-four hours after treatment, a luciferase assay was performed as described in Example 1.
Plasmid construction: a DNA fragment containing sequences for the guanine aptamer xpt-G and human arginine pre-tRNA (Nashimoto M. N. et al. Long 5′ leaders inhibit removal of a 3′ trailer from a precursor tRNA by mammalian tRNA 3′ processing endoribonuclease. Nucleic Acids Research, 1999; 27(13): 2770-2776) were synthesized (IDT). The synthesized DNA fragments were digested with BamHI and XhoI restriction enzymes and cloned into the Con8 construct digested with the same restriction enzymes. Construct sequences were verified by DNA sequencing (Genewiz).
Plasmid construction: a DNA fragment containing sequences for the adenine aptamer ydhl-A (M. Mandal and R. R. Breaker, Adenine riboswitches and gene activation by disruption of a transcription terminator. Nature Structural & Molecular Biology. 2004; 11: 29-35, incorporated herein by reference) or theophylline aptamer (G. R. Zimmerman, et al. Interlocking structural motifs mediate molecular discrimination by a theophylline-binding RNA. Nature Structural Biology. 1997; 4: 644-649, incorporated herein by reference), and mascRNA sequence were synthesized (IDT). The synthesized DNA fragments were digested with BamHI and XhoI restriction enzymes and cloned into Con8 digested with the same restriction enzymes. Construct sequences were verified by DNA sequencing (Genewiz).
Four hours after transfection, the media was aspirated, and new media with NaOH (1 mM) as solvent or 1 mM adenine (Calbiochem), or 3 mM theophylline (Sigma) was added. The induction fold was expressed as the quotient of luciferase activity obtained in the presence of aptamer ligand divided by the value obtained in the absence of the aptamer ligand. […]

## Luci-mascRNA-mlp: luciferase construct with mascRNA mutated in the T-loop from UUC to AAG, negative control (GACGCUGGUGGCUGGCACUCCUGGUUUCCAGGACGGGGAAGAAGUCCCUGCGGUGUCU)
[1]
  decrease in luciferase expression compared to the luciferase construct that has no mascRNA (Luci): 20%

B1: GM8: SEQ ID NO: 10; 3 nucleotides between effector region stem and mascRNA acceptor stem (nucleic acid)
chain: CCTCATAAAGGCCAAGAAGGGCGGAAAGATCGCCGTGTAAGGATCCAAGACGAGCTGTACAAGTAAAGAAGAGCTAATGTATAATCGCGTGGATATGGCACGCAAGTTTCTACCGGGCACCGTAAATGTCCGACTACATTAGCCGAGACGCTGGTGGCTGGCACTCCTGGTTTCCAGGACGGGGTTCAAGTCCCTGCGGTGTCTTTGCTTGGATCGGCCGCGACTCTAGAGTCGACCTGCAGGCATGCAAGCTTCAGCTGCTCGAGGGCCCAGATCTAATTCACCCCACCAGTGCAGGCTGCCTATCAG
[2]; guanine treatment
  luciferase expression in response to guanine treatment: upregulate luciferase expression

B2: MG3: SEQ ID NO: 12; MG1 variant with 4 alternatively shared nucleotides (nucleic acid)
chain: CCTCATAAAGGCCAAGAAGGGCGGAAAGATCGCCGTGTAAGGATCCAAGACGAGCTGTACAAGTAAAGCGGCCAATTCGGACAAAAACGAGACGCTGGTGGCTGGCACTCCTGGTTTCCAGGACGGGGTTCAAGTCCCTGCGGTGTCTGTATAATCGCGTGGATATGGCACGCAAGTTTCTACCGGGCACCGTAAATGTCCGACTACAGACAATCTAGAGTCGACCTGCAGGCATGCAAGCTTCAGCTGCTCGAGGGCCCAGATCTAATTCACCCCACCAGTGCAGGCTGCCTATCAG
[2]; absence of guanine
  basal level luciferase activity: modest decrease
[2]; guanine treatment
  induction fold of luciferase, with guanine versus without guanine: approximately 2 fold

B3: MG4: SEQ ID NO: 13; MG1 variant with 3 alternatively shared nucleotides (nucleic acid)
chain: CCTCATAAAGGCCAAGAAGGGCGGAAAGATCGCCGTGTAAGGATCCAAGACGAGCTGTACAAGTAAAGCGGCCAATTCGGACAAAAACGAGACGCTGGTGGCTGGCACTCCTGGTTTCCAGGACGGGGTTCAAGTCCCTGCGGTGTCTAGTATAATCGCGTGGATATGGCACGCAAGTTTCTACCGGGCACCGTAAATGTCCGACTACTAGACTTCTAGAGTCGACCTGCAGGCATGCAAGCTTCAGCTGCTCGAGGGCCCAGATCTAATTCACCCCACCAGTGCAGGCTGCCTATCAG
[2]; absence of guanine
  basal level luciferase activity: modest decrease
[2]; guanine treatment
  induction fold of luciferase, with guanine versus without guanine: approximately 2 fold

B4: GArg: SEQ ID NO: 14; GM1 with mascRNA replaced by human arginine tRNA sequence (nucleic acid)
chain: CCTCATAAAGGCCAAGAAGGGCGGAAAGATCGCCGTGTAAGGATCCAAGACGAGCTGTACAAGTAAAGAAGACTGCGACGATAATCGCGTGGATATGGCACGCAAGTTTCTACCGGGCACCGTAAATGTCCGACTCGTCGCAGGGCCAGTGGCGCAATGGATAACGCGTCTGACTACGGATCAGAAGATTCCAGGTTCGACTCCTGGCTGGCTCGGTGTAGGCCGCGACTCTAGAGTCGACCTGCAGGCATGCAAGCTTCAGCTGCTCGAGGGCCCAGATCTAATTCACCCCACCAGTGCAGGCTGCCTATCAG
[2]; absence of guanine
  basal level luciferase expression as % of control construct Con8: approximately 50%
[2]; guanine treatment
  induction fold of luciferase, with guanine versus without guanine: 1.6 fold

B5: TheoM: SEQ ID NO: 16; theophylline aptamer and mascRNA in luciferase 3' UTR (nucleic acid)
chain: CCTCATAAAGGCCAAGAAGGGCGGAAAGATCGCCGTGTAAGGATCCAAGACGAGCTGTACAAGTAAAGCGGCCTAATGTGATACCAGCCGAAAGGCCCTTGGCAGCACATTAGACGCTGGTGGCTGGCACTCCTGGTTTCCAGGACGGGGTTCAAGTCCCTGCGGTGTCTTTGCTTGGATCGGCCGCGACTCTAGAGTCGACCTGCAGGCATGCAAGCTTCAGCTGCTCGAGGGCCCAGATCTAATTCACCCCACCAGTGCAGGCTGCCTATCAG
[2]; 3 mM theophylline vs solvent
  fold increase in luciferase expression with theophylline: 4.1 fold
[2]; absence of theophylline treatment
  luciferase level as % of the control Con8 construct: approximately 43.4%

B6: YM: SEQ ID NO: 15; ydhl-A adenine aptamer and mascRNA in luciferase 3' UTR (nucleic acid)
chain: CCTCATAAAGGCCAAGAAGGGCGGAAAGATCGCCGTGTAAGGATCCAAGACGAGCTGTACAAGTAAAGCGGCCGTAATGTTATAACCTCAATAATATGGTTTGAGGGTGTCTACCAGGAACCGTAAAATCCTGATTAACATTACGACGCTGGTGGCTGGCACTCCTGGTTTCCAGGACGGGGTTCAAGTCCCTGCGGTGTCTTTGCTTGGATCGGCCGCGACTCTAGAGTCGACCTGCAGGCATGCAAGCTTCAGCTGCTCGAGGGCCCAGATCTAATTCACCCCACCAGTGCAGGCTGCCTATCAG
[2]; 1 mM adenine vs NaOH solvent
  fold increase in luciferase expression with adenine: 3.3 fold
